This assay concerns the target S2A4 (human). In words: BLI.
Chain of S2A4 (human) (heavy, as listed by the source, chain 1 of 2): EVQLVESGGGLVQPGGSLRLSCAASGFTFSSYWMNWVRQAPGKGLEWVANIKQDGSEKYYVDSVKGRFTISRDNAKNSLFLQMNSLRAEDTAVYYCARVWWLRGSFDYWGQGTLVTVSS
Chain of S2A4 (human) (light, as listed by the source, chain 2 of 2): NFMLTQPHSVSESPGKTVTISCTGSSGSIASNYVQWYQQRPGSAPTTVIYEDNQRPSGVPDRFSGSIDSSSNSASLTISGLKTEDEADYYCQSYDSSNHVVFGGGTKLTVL
As a reminder, the Kd is the free concentration of one partner at which half of the binding sites on the other are occupied at equilibrium, for simple one-to-one binding. As to “Omicron-(L371S+F375S) RBD (from UniProt P0DTC2 319-541) (domain or fragment)”, the dissociation constant Kd amounted to 75.2 nM. For “Omicron-(P373S+F375S) RBD (from UniProt P0DTC2 319-541) (domain or fragment)” the value was 38.6 nM; for “Omicron-(L371S+P373S) RBD (from UniProt P0DTC2 319-541) (domain or fragment)”, 89.4 nM.

Values taken from paper PMC11366018.
